The values below come from US20100111995A1.

The target in the test is CCR5 expressed on the cell surface (CEM.NKR-CCR5 cells; stimulated CD4+ T cells; CEM 5.25.EGFP.luc.M7 cells) (human) (UniProt P51681). The test can be described thus: cell-based or functional assay.

On to “RANTES (from UniProt P13501 24-91) (ligand)”, for which the Antibody concentrations inhibiting HIV, 50% inhibition was found to be 5.8 ng/mL and the Antibody concentrations inhibiting HIV, 70% inhibition is 14.7 ng/mL.
